Columns and labels:
JCV [1] = details: in vitro; cited from earlier work
MS patients [2] = details: 2-year Phase 3 MS trials; cited from earlier work
JCV [3] = details: one MS patient with PML after natalizumab plus AVONEX; cited from earlier work
[4] = biological target: serotonin 5HT2(A) receptor (Homo sapiens, UniProt P28223); assay: 5HT2(A) receptor antagonism in vitro
[5] = system: rheumatoid arthritis patients; assay: Deaths in rheumatoid arthritis trials of natalizumab; assay type: in vivo, human; details: natalizumab-treated rheumatoid arthritis patients
From the text: Three deaths occurred in the rheumatoid arthritis trials, two in natalizumab-treated patients and one in a patient treated with a placebo. The natalizumab-treated patients died of hemoptysis with respiratory failure and end-stage rheumatoid pulmonary disease. The placebo-treated patient died of circulatory and respiratory insufficiency.

[6] = system: relapsing remitting MS patients; assay: Phase 3 monotherapy study: natalizumab versus placebo for 120 weeks; assay type: in vivo, human
Method: (§1) As described in more detail in Example 1, two Phase 3 studies were conducted to study the effect of two years of treatment with natalizumab. One of the studies used natalizumab alone (the monotherapy study) and the other used natalizumab in combination with AVONEX® (the add-on therapy study). Both these Phase 3 studies were designed with two sets of primary and secondary endpoints. The primary and secondary endpoints were selected to measure the effects of natalizumab on the inflammatory aspects of the disease after a mean of one year of follow-up in each study (900 patient-years of observation in the monotherapy study; 1,200 patient-years in the add-on therapy study).
(§2) The primary endpoint of these studies was the annualized rate of clinical relapses. Two of the secondary endpoints were two supporting MRI measures of inflammatory disease activity, namely, the mean number of new or newly enlarging T2-hyperintense lesions (measuring lesion accumulation over time) and the mean number of Gd-enhancing lesions (measuring acute disease activity), as ranked in order of importance. The proportion of patients remaining relapse-free provided a third secondary endpoint.
(§3) Another series of endpoints was assessed at the conclusion of each study following two years of natalizumab treatment. The endpoints for this final analysis were selected to determine natalizumab's effects on measures associated with MS disease progression. The primary endpoint at two years was the time until onset of sustained progression of disability, as measured by changes in EDSS scores. Similar to the one-year analysis, the secondary endpoints were additional MRI and clinical measures that would support the primary analysis. The secondary endpoints at two years, ranked in order of importance, were the rate of MS relapses (to confirm one-year relapse observations), the mean volume of T2-hyperintense lesions (a measure of overall MS disease burden), the mean number of T1-hypointense lesions (a measure of axonal loss), and progression of disability as determined by changes in the MSFC (to confirm and expand upon disability effects as measured by the EDSS).
(§4) Given two primary endpoints at two different time points (annualized relapse rate at one year, time to disability progression at two years), the Hochberg procedure for multiple comparisons (Hochberg, Biometrika 75:800-802 (1988)) was used to evaluate the primary endpoint. Each set of secondary endpoints was prioritized in order of importance as listed above. A closed testing procedure was used for each set, such that if statistical significance was not achieved for an endpoint within a set, all endpoints(s) of a lower rank in that set were not considered statistically significant.
Both Phase 3 studies had similar designs. In the monotherapy study, 942 untreated relapsing remitting MS patients were randomized to receive natalizumab or placebo for 120 weeks (30 infusions) using a 2:1 allocation. In the add-on study, 1,171 patients who had been receiving weekly intramuscular injections of 30 μg AVONEX®, but who had relapsed despite this treatment, were randomized using a 1:1 allocation to add natalizumab or placebo to their regimen, also for 120 weeks.
Efficacy parameters included EDSS scores, MS relapses, brain MRI scans, MSFC scores, visual function tests, and quality of life. EDSS and MSFC were measured every 12 weeks, brain MRI scans and quality of life questionnaires at baseline and every year, and MS relapses on an ongoing basis.
The patient population in the two Phase 3 studies were relapsing MS patients according to the criteria of the International Panel on the Diagnosis of Multiple Sclerosis (McDonald et al., Ann. Neurol. 50:121-127 (2001)). It encompassed a broad range of ages and disease severity, and represented the current relapsing MS population with active disease, consistent with the approved indication. Patients with primary- or secondary-progressive MS were excluded. […]

[7] = Population pharmacokinetic analysis of natalizumab with concurrent AVONEX; assay type: in vivo, human
Method: In a placebo-controlled MS study, the administration of AVONEX® appeared to be associated with an increase in the serum concentrations of natalizumab in a small cohort on whom intensive pharmacokinetic sampling was performed. However, based upon a comparison of the mean post-hoc parameter estimates from the population pharmacokinetic analysis, steady-state clearance and half-life values differed between patients concurrently taking AVONEX® and natalizumab monotherapy, but only by approximately 5%, and were not considered clinically significant. […] It is notable that the two reports of PML in the MS database occurred in patients receiving concomitant AVONEX®. Thus, the risk of PML with natalizumab treatment may be increased by concomitant treatment with interferon β, though this could have occurred in two patients on combination therapy due to chance alone (p=0.23).

MS patients [8] = assay: Safety of natalizumab in MS clinical trials (adverse events, deaths); assay type: in vivo, human
From the text: Eighteen treatment-emergent deaths occurred in the entire natalizumab program. The adverse events encountered in the trials, both common and serious, were similar in natalizumab-treated patients and controls. Adverse events that led to discontinuation of natalizumab occurred in 5.8% of natalizumab-treated MS patients and in 4.8% of placebo-treated MS patients, with urticaria being the most common cause of discontinuation in the natalizumab-treated patients (1.2%).
Of the eighteen deaths that occurred during the clinical trials, five occurred in the placebo-controlled MS trials (including two in patients who had received natalizumab and three who had received placebo). The patients who received natalizumab died of alcohol intoxication and metastatic malignant melanoma. The patients who received placebo died of cardiac arrest, respiratory arrest, and pleural carcinomatosis with seizures. Four deaths occurred in the open-label MS trials, due to respiratory distress, PML, suicide, and seizure due to MS.
At least one serious adverse event was encountered by 251 of the 1,617 natalizumab-treated MS patients (15.5%) and by 214 of the 1,135 placebo-treated patients (18.9%) in the placebo-controlled trial. The most common serious adverse events, classified by organ systems, were nervous system disorders (5.9% natalizumab, 10.2% placebo). […] The second most common serious adverse events were infections and infestations (2.4% natalizumab, 2.2% placebo), with appendicitis and urinary tract infection (<1% in both groups) as the most common.

[9] = system: relapsing MS patients relapsing despite AVONEX; assay: Phase 3 add-on therapy study: natalizumab added to AVONEX versus AVONEX plus placebo for 120 weeks; assay type: in vivo, human
Method: as §1, §2, §3, §4
The add-on therapy study was designed to evaluate the efficacy of natalizumab against active control for patients breaking through AVONEX® monotherapy. The choice of β-interferon was supported by available data on the proposed mechanisms of action of the available drugs. As discussed above, natalizumab has a well-defined mechanism of action, specifically targeting cellular adhesion and trans-endothelial migration via α4-integrins, as do the class of alpha-4 inhibitor compounds. Although the exact mechanism by which interferon-β exerts efficacy in MS is not known, interferon-β induces a large number of cellular processes involved in cytokine secretion and cellular phenotype changes. […]

Crohn's Disease patients = assay: Deaths in Crohn's Disease trials of natalizumab; assay type: in vivo, human; details: natalizumab-treated Crohn's Disease patients
From the text: The exposure to natalizumab was approximately three-fold greater in these trials than exposure to placebo. The causes of death were acute myocardial infarction, acute renal failure, carbon dioxide asphyxiation, PML, pneumocystis carinii pneumonia, and bronchopulmonary aspergillosis.

JCV [10] = assay: Safety evaluation for PML / JCV in natalizumab-exposed clinical trial patients
From the text: Clinical trial patients exposed to natalizumab were systematically assessed for evidence of incipient PML or any other opportunistic infection.
Criteria were established prospectively for the neuroradiologic evidence and laboratory assays for the diagnosis of PML. A diagnosis of “confirmed PML” was defined by presence of progressive clinical disease, MRI signs typical of PML, detection of JCV DNA in CSF, or pathologic confirmation. Sufficient evidence to exclude PML was defined as lack of progressive neurological disease, MRI lesions not typical of PML or stable over time, or no detectable JCV DNA in the CSF if the MRI was suspicious. A case was deemed “indeterminate” if there was clinical or MRI suspicion of PML and follow-up clinical, MRI, or CSF data could not be obtained.
Investigators were requested to perform the assessment procedure, including medical history, neurological examination, brain MRI, and CSF collection. Blood samples were also collected for PCR analysis of JCV DNA as an exploratory adjunct. MRI scans were assessed by Central Reader Centers with expertise in neurological disorders, including the two Central Reader Centers for the original Phase 3 MS studies. A consensus guideline was developed prospectively to standardize criteria to help distinguish MS white matter abnormalities from those of PML.

[11] = Natalizumab in combination with glatiramer acetate over six months; assay type: in vivo, human; details: 20 mg daily glatiramer acetate
Method: The safety of natalizumab in combination with glatiramer acetate was evaluated by administering natalizumab over six months to patients who continued to receive 20 mg of daily glatiramer acetate. […] However, this study was of insufficient size or duration to establish the long-term safety or efficacy in this population.

[12] = mean post-hoc parameter estimates, population pharmacokinetic analysis

Sequence of serotonin 5HT2(A) receptor (P28223 whole entry): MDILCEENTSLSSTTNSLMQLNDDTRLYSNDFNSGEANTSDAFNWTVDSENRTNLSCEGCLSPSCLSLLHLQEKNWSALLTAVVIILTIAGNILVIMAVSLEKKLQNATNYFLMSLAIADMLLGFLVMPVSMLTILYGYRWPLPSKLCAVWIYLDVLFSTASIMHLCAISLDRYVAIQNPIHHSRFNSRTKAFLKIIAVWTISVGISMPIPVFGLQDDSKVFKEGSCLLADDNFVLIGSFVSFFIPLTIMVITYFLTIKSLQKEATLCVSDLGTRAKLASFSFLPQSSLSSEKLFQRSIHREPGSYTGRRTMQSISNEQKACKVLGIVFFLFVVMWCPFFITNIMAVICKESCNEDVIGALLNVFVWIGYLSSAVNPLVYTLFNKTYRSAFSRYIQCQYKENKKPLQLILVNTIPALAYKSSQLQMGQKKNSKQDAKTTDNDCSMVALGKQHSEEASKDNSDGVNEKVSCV

CN(C)CCCN1c2ccccc2Sc2ccc(Cl)cc21 [chlorpromazine]
Block of JCV cell entry (JCV [1]): block

glatiramer acetate
Subjects who experienced at least one relapse despite treatment (MS patients [2]): 66%

Nc1ccn(C[C@@H](CO)OCP(=O)(O)O)c(=O)n1 [Cidofovir, cidofovir]
Clinical effect in PML (JCV [3]): without clinical effect

O=C1Cc2cc(CCN3CCN(c4nsc5ccccc45)CC3)c(Cl)cc2N1 [zisprasidone]
Potency as 5HT2(A) receptor antagonist relative to chlorpromazine and clozapine [4]: significantly more potent

natalizumab: humanized antibody against VLA-4; humanized IgG4κ monoclonal antibody directed against the α-4-subunit of alpha-4 integrins
Deaths [5]: two | Quality of life, physical and mental components of the SF-36 ([6]; monotherapy versus placebo): improved | Annualized relapse rate ([6]; monotherapy, two years): 0.235 | Hazard ratio (95% confidence interval) for sustained progression of disability ([6]; natalizumab versus placebo, two years): 0.58 (0.43, 0.77) | Percentage of patients with sustained progression of disability ([6]; two years, measured by EDSS, monotherapy): 17% | Patients remaining relapse-free ([6]; two years, monotherapy): 67% | Risk reduction of disability progression ([6]; versus placebo, EDSS, two years): 42% | Relative reduction in annualized relapse rate ([6]; versus placebo, two years): 68% | Difference in half-life, concurrent AVONEX versus natalizumab monotherapy [7, 12]: approximately 5% | Difference in steady-state clearance, concurrent AVONEX versus natalizumab monotherapy [7, 12]: approximately 5% | Serum concentrations of natalizumab on administration of AVONEX ([7]; small cohort with intensive pharmacokinetic sampling, placebo-controlled MS study): increase | Tolerability (MS patients [8]; 3,919 subjects in MS, Crohn's Disease and rheumatoid arthritis trials): generally well tolerated | Occurrence of malignancy (MS patients [8]; during natalizumab treatment, balanced with control groups): uncommon | Incidence of hypersensitivity reactions (MS patients [8]; human, in vivo): approximately 4% | Incidence of serious systemic hypersensitivity reactions (MS patients [8]; human, in vivo): less than 1% | Adverse events that led to discontinuation (MS patients [8]; natalizumab-treated MS patients): 5.8% | Discontinuation due to urticaria (MS patients [8]; natalizumab-treated patients, most common cause of discontinuation): 1.2% | Deaths (MS patients [8]; open-label MS trials): Four | Serious adverse events: MS relapse (MS patients [8]; placebo-controlled MS trial): 4.7% | Serious adverse events: appendicitis and urinary tract infection (MS patients [8]; placebo-controlled MS trial): < 1% | Serious adverse events: infections and infestations (MS patients [8]; placebo-controlled MS trial): 2.4% | Serious adverse events: nervous system disorders (MS patients [8]; placebo-controlled MS trial): 5.9% | Patients with at least one serious adverse event (MS patients [8]; placebo-controlled MS trial, 251 of 1,617 patients): 15.5% | Deaths (MS patients [8]; placebo-controlled MS trials, patients who had received natalizumab): two | Tolerability in combination with AVONEX ([9]; 589 patients, up to 120 weeks): well tolerated | Quality of life, physical components of the SF-36 ([9]; compared to AVONEX therapy alone, trend on the mental component): improved | Patients relapse-free ([9]; two years, add-on to AVONEX): 54% | Risk reduction of disability progression ([9]; versus AVONEX alone, EDSS, two years): 24% | Relative reduction in annualized relapse rate ([9]; versus AVONEX, two years): 55% | Deaths (Crohn's Disease patients): Six | Incidence of PML (JCV [10]; human, in vivo): approximately 1 /1,000 | Incidence of PML, 95% confidence interval (JCV [10]; human, in vivo): 0.2-2.8 /1,000 | JCV in CSF (JCV [10]; human, in vivo): not detected | Confirmed cases of PML (JCV [10]; two MS patients, one Crohn's Disease patient, two fatal): Three | Interaction between glatiramer acetate and natalizumab pharmacokinetics [11]: no interactions | Interaction between glatiramer acetate and natalizumab α4-integrin receptor saturation [11]: no interactions
